Target: T1, MERS-CoV spike ectodomain ECD (Middle East respiratory …, UniProt K9N5Q8)
T1 chain: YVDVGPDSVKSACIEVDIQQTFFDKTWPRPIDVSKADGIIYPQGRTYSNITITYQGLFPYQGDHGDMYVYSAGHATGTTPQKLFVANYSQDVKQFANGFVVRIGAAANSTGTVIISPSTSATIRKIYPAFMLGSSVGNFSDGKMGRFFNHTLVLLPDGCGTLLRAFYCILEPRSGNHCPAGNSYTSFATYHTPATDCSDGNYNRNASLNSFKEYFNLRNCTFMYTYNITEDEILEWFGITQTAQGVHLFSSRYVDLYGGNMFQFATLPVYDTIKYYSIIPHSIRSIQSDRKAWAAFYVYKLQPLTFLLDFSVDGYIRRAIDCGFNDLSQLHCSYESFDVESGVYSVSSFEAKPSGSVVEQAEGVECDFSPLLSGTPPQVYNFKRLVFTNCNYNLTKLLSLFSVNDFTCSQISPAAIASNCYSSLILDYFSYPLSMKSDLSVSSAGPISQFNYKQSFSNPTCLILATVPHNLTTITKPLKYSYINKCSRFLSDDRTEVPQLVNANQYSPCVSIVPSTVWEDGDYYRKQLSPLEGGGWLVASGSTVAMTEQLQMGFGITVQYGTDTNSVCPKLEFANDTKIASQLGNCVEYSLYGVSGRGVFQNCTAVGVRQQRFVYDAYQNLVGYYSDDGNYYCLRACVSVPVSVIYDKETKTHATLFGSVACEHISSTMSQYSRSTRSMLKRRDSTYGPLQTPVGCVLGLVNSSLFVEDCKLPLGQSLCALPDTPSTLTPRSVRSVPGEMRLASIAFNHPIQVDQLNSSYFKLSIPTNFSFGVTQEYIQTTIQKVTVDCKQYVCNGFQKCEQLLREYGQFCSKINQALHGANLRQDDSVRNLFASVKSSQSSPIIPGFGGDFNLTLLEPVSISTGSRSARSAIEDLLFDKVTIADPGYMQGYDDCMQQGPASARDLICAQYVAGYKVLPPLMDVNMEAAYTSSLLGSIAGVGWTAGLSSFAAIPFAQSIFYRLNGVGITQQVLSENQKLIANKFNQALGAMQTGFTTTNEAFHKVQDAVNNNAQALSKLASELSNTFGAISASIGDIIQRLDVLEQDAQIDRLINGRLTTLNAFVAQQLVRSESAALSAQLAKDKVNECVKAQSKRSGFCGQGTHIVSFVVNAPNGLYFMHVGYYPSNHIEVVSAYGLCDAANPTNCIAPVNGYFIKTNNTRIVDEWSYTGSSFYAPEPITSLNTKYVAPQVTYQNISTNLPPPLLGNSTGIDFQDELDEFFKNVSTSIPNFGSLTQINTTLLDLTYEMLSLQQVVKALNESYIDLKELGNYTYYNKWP

B1: DPP4 (protein)
chain: SRKTYTLTDYLKNTYRLKLYSLRWISDHEYLYKQENNILVFNAEYGNSSVFLENSTFDEFGHSINDYSISPDGQFILLEYNYVKQWRHSYTASYDIYDLNKRQLITEERIPNNTQWVTWSPVGHKLAYVWNNDIYVKIEPNLPSYRITWTGKEDIIYNGITDWVYEEEVFSAYSALWWSPNGTFLAYAQFNDTEVPLIEYSFYSDESLQYPKTVRVPYPKAGAVNPTVKFFVVNTDSLSSVTNATSIQITAPASMLIGDHYLCDVTWATQERISLQWLRRIQNYSVMDICDYDESSGRWNCLVARQHIEMSTTGWVGRFRPSEPHFTLDGNSFYKIISNEEGYRHICYFQIDKKDCTFITKGTWEVIGIEALTSDYLYYISNEYKGMPGGRNLYKIQLSDYTKVTCLSCELNPERCQYYSVSFSKEAKYYQLRCSGPGLPLYTLHSSVNDKGLRVLEDNSALDKMLQNVQMPSKKLDFIILNETKFWYQMILPPHFDKSKKYPLLLDVYAGPCSQKADTVFRLNWATYLASTENIIVASFDGRGSGYQGDKIMHAINRRLGTFEVEDQIEAARQFSKMGFVDNKRIAIWGWSYGGYVTSMVLGSGSGVFKCGIAVAPVSRWEYYDSVYTERYMGLPTPEDNLDHYRNSTVMSRAENFKQVEYLLIHGTADDNVHFQQSAQISKALVDVGVDFQAMWYTDEDHGIASSTAHQHIYTHMSHFIKQCFSLP
Kd: 3.42 nM

Reference: publication PMC6455120 (2019)
